Results on 2 molecules are retold here after article PMC13031973 (Nature Communications, 2026).

The target of experiment [1] is T1, purified proteasome subunit RPN1 (PSMD2) (human, UniProt Q13200 1-908). The experiment is described as follows: SPR.
Experiment [2] addresses T1, purified proteasome subunit RPN1 (PSMD2). Kind of experiment: ITC. (In general: ITC needs no label: the signal is the heat of the interaction.)

By Kd is commonly meant the free concentration of one partner at which half of the binding sites on the other are occupied at equilibrium, for simple one-to-one binding. High values mean a looser complex, low ones a tighter complex.

T1 sequence (Q13200 whole entry): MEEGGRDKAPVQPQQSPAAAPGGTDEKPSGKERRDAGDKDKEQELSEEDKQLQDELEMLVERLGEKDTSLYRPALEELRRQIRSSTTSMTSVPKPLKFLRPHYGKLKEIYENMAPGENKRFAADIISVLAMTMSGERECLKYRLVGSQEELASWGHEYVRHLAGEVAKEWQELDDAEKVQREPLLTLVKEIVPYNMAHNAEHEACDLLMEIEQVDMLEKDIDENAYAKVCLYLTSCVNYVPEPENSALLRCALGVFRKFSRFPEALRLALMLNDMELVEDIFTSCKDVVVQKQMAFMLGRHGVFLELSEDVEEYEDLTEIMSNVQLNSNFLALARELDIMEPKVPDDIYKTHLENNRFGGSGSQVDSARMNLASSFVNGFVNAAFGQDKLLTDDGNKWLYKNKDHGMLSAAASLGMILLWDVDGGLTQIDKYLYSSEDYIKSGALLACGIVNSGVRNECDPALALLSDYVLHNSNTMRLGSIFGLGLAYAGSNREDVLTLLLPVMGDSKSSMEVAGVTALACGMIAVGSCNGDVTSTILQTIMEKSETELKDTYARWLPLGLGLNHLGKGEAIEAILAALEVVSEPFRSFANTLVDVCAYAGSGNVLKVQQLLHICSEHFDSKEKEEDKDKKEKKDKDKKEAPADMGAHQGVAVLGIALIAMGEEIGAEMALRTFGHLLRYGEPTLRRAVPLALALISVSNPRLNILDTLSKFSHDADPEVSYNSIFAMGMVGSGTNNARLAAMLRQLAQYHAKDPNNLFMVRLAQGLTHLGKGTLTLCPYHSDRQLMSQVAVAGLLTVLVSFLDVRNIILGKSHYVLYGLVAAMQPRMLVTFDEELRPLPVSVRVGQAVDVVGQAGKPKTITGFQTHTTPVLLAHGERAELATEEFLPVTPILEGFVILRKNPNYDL

B1: MIDN(337-432) (domain or fragment)
chain: SPASPAPDLAPRTTSCEKLTAAPSASLLQGQSQIRMCKPPGDRLRQTENRATRCKVERLQLLLQQKRLRRKARRDARGPYHWSPSRKAGRSDSSSS
Take B1: the dissociation constant Kd in experiment [1] is 663 nM; in experiment [2] it was about 146 nM.

B2: MIDN(337-468) (domain or fragment)
chain: SPASPAPDLAPRTTSCEKLTAAPSASLLQGQSQIRMCKPPGDRLRQTENRATRCKVERLQLLLQQKRLRRKARRDARGPYHWSPSRKAGRSDSSSSGGGGSPSEASGLGLDFEDSVWKPEVNPDIKSEFVVA
As to B2, the figures for the Kd in experiment [1] and in experiment [2] were 390 nM and about 130 nM, respectively.
